Results as given in patent US20120114557A1.
Bridge positions count the residues as written; N and C are the ends. Square brackets hold non-standard residues; d marks the D form. Ends that are not written are not given here. NMeA = CN[C@@H](C)C(=O)O; Sar = CNCC(=O)O

Experiments:
[1] = biological target: human collagen type I (human) (UniProt P02452); assay: dried collagen assay, 5 uM peptide
[2] = biological target: rat collagen type I (rat) (UniProt P02454); assay: dried collagen assay, 5 uM peptide
Sequence of rat collagen type I (rat) (P02454 152-1207, chain 1 of 2): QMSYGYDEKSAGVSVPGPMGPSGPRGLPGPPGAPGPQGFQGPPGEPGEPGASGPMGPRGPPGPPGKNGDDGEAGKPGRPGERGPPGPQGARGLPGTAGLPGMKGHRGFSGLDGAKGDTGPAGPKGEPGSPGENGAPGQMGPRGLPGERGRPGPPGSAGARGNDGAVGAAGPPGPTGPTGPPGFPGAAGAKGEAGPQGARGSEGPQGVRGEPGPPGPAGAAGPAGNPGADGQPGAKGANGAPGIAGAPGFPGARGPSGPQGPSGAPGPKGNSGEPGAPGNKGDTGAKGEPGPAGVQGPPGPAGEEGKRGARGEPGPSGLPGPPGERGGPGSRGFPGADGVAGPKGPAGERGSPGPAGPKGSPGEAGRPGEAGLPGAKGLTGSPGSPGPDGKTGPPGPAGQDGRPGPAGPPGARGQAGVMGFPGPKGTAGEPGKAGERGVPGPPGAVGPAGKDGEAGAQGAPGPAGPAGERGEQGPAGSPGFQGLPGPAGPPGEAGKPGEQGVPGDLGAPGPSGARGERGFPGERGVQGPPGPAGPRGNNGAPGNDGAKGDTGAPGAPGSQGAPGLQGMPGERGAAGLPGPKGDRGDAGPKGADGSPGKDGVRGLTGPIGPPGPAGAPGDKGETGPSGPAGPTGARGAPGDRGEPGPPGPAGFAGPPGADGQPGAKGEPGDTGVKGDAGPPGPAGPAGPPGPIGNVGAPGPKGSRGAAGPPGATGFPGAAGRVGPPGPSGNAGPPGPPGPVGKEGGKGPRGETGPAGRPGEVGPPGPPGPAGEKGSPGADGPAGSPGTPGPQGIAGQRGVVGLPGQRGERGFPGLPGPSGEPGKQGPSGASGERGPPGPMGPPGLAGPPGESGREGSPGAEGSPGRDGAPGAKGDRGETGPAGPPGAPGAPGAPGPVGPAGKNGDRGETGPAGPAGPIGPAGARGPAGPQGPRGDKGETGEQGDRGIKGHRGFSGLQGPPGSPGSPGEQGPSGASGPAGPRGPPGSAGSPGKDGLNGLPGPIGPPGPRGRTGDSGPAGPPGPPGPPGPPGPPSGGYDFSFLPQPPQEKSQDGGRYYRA
Sequence of rat collagen type I (rat) (P02466 86-1125, chain 2 of 2, further chain): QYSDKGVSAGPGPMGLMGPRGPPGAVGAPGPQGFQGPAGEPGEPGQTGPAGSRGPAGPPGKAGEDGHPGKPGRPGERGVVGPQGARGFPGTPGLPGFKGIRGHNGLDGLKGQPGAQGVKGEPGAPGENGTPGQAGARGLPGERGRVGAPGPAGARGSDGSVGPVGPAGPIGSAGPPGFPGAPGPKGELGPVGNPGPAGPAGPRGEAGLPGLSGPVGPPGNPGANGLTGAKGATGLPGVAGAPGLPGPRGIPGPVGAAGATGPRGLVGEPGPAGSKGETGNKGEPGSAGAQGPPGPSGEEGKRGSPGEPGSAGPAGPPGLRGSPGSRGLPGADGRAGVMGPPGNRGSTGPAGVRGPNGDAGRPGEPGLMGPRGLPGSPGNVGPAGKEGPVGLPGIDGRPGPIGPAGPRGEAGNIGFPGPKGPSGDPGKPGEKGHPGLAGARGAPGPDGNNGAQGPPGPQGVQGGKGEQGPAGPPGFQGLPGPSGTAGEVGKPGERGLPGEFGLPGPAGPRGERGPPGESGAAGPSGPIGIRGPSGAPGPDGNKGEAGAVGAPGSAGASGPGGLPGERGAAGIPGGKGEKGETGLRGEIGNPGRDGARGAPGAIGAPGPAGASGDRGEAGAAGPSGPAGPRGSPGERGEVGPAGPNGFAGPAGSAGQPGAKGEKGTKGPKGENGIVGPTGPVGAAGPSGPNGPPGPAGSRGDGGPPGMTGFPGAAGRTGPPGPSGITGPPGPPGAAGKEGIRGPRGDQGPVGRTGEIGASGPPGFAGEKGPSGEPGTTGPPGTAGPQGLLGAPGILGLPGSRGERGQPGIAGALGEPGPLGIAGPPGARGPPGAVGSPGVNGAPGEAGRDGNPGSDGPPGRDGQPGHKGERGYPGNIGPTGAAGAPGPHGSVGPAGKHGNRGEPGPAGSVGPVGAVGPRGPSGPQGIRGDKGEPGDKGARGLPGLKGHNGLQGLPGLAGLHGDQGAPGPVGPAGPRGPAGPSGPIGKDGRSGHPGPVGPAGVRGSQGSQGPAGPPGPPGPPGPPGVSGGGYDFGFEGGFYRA

Sequence of human collagen type I (human) (P02452 162-1218 limits assumed, chain 1 of 2): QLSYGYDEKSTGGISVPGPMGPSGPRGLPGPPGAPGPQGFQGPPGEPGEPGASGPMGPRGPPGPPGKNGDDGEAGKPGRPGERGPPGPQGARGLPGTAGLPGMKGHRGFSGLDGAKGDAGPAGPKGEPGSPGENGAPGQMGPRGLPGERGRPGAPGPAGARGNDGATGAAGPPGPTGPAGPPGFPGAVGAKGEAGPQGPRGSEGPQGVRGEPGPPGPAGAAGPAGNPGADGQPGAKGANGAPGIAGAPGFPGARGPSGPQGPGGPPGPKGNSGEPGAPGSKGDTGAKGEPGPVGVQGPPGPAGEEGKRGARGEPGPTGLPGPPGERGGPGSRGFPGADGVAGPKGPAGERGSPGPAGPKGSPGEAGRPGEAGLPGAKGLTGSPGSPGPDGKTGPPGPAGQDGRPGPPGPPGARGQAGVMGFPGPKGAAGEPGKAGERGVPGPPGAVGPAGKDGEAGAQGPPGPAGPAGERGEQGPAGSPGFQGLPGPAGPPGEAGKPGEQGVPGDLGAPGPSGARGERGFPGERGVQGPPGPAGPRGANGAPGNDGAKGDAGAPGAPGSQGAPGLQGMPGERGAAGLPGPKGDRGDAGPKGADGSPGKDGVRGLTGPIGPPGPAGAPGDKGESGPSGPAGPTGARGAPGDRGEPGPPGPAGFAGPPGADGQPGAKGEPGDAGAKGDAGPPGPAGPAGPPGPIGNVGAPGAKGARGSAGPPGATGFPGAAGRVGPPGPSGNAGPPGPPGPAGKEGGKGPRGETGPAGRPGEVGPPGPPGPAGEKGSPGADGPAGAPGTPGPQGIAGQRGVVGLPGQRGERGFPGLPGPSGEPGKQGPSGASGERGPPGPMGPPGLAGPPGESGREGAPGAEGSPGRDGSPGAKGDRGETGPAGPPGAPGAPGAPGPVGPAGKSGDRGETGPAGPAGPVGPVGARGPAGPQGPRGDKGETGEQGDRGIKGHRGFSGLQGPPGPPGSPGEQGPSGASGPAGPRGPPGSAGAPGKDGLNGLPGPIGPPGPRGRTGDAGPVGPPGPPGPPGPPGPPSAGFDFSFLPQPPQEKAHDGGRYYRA
Sequence of human collagen type I (human) (P08123 80-1119 limits assumed, chain 2 of 2, further chain): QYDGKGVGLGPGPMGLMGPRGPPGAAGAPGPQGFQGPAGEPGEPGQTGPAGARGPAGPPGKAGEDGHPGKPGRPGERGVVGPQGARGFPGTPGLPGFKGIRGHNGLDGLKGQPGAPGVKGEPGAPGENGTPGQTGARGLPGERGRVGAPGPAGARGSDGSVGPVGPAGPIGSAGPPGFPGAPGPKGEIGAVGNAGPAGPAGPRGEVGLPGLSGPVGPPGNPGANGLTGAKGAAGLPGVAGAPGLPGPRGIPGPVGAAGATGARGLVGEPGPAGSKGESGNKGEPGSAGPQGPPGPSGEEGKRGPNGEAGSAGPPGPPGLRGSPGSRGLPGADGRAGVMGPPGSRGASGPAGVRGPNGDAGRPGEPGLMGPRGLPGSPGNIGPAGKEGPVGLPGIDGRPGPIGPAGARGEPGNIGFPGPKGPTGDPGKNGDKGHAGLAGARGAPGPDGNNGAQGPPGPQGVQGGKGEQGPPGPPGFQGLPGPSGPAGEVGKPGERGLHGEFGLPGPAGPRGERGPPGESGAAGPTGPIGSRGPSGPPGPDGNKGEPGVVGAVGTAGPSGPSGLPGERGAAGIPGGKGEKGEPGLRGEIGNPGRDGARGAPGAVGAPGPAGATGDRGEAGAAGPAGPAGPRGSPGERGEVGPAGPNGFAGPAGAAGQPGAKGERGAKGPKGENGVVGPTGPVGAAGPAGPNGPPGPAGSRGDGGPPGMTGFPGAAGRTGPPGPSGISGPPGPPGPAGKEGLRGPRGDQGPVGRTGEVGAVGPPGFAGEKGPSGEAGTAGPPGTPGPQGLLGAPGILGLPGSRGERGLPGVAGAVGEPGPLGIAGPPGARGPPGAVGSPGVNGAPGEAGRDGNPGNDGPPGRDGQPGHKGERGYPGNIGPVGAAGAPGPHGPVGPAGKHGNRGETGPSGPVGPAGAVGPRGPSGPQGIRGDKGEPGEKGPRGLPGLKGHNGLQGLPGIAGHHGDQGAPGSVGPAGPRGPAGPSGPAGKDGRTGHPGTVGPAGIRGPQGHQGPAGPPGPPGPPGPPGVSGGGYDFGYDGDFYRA

| Binder | % Collagen Binding, Dried Human [1] [%] | % Collagen Binding, Dried Rat [2] [%] | Dried Human Collagen Binding [1] [%] |
| --- | --- | --- | --- |
| GQWTCSADEYTWHCNYE (disulfide 5-14 (inferred)) [SEQ ID NO: 142] | – | 6 | – |
| YH[dA]CYQAGCWIW (disulfide 4-9 (inferred)) [SEQ ID NO: 154] | 24 | 21 | – |
| GQWTC[dS]GDEYTWHCNYE (disulfide 5-14 (inferred)) [SEQ ID NO: 168] | 3 | 2 | – |
| YHAC[dY]QAGCWIW (disulfide 4-9 (inferred)) [SEQ ID NO: 156] | 38 | 48 | – |
| G[dQ]WTCSGDEYTWHCNYE (disulfide 5-14 (inferred)) [SEQ ID NO: 164] | 46 | 31 | – |
| GQW[dT]CSGDEYTWHCNYE (disulfide 5-14 (inferred)) [SEQ ID NO: 166] | 2 | 3 | – |
| YHACYQAGCWAW (disulfide 4-9 (inferred)) [SEQ ID NO: 137] | – | 7 | – |
| YHACYQ[dA]GCWIW (disulfide 4-9 (inferred)) [SEQ ID NO: 158] | 56 | 66 | – |
| PMICHAPYVGKCNFL (disulfide 4-12 (inferred)) [SEQ ID NO: 12] | – | – | 7 |
| YHACYQA[Sar]CWIW (disulfide 4-9 (inferred)) [SEQ ID NO: 104] | 12 | 19 | – |
| DWTCS[dA]DEYTWHCNYE (disulfide 4-13 (inferred); not fully specified (C-terminus); printed as D W T C S a D E Y T W H C N Y E) [SEQ ID NO: 179] | 81 | 75 | – |
| DWTCS[dR]DEYTWHCNYE (disulfide 4-13 (inferred); not fully specified (C-terminus); printed as D W T C S r D E Y T W H C N Y E) [SEQ ID NO: 181] | 87 | 86 | – |
| YHACY[dQ]AGCWIW (disulfide 4-9 (inferred)) [SEQ ID NO: 157] | 37 | 35 | – |

Next, values leading:

| % Collagen Binding, Dried Human [1] [%] | % Collagen Binding, Dried Rat [2] [%] | Dried Human Collagen Binding [1] [%] | Binder |
| --- | --- | --- | --- |
| 2 | 2 | – | GQWTCSGDEYTWHC[dN]YE (disulfide 5-14 (inferred); not fully specified (C-terminus)) [SEQ ID NO: 176] |
| 49 | 35 | – | GQWTCSGD[dE]YTWHCNYE (disulfide 5-14 (inferred); not fully specified (C-terminus)) [SEQ ID NO: 170] |
| – | 6 | – | YHACYQAGCYIW (disulfide 4-9 (inferred)) [SEQ ID NO: 107] |
| 20 | 12 | – | YHACYQAGC[dW]IW (disulfide 4-9 (inferred)) [SEQ ID NO: 160] |
| 30 | 27 | – | GQWTCSGDEYTWHCN[dY]E (disulfide 5-14 (inferred); not fully specified (C-terminus)) [SEQ ID NO: 177] |
| 5 | 0 | – | GQWTCSGDEYTW[dH]CNYE (disulfide 5-14 (inferred); not fully specified (C-terminus)) [SEQ ID NO: 174] |
| 81 | 72 | – | DWTCS[dS]DEYTWHCNYE (disulfide 4-13 (inferred); not fully specified (C-terminus); printed as D W T C S s D E Y T W H C N Y E) [SEQ ID NO: 180] |
| 0 | 0 | – | Y[dH]ACYQAGCWIW (disulfide 4-9 (inferred)) [SEQ ID NO: 153] |
| 18 | 14 | – | YHACYQAGCWI[dW] (disulfide 4-9 (inferred)) [SEQ ID NO: 162] |
| 9 | 8 | – | GQWTCSGDEY[dT]WHCNYE (disulfide 5-14 (inferred); not fully specified (C-terminus)) [SEQ ID NO: 172] |
| 2 | 4 | – | GQ[dW]TCSGDEYTWHCNYE (disulfide 5-14 (inferred)) [SEQ ID NO: 165] |
| 9 | 23 | – | YHACYQ[NMeA]GCWIW (disulfide 4-9 (inferred)) [SEQ ID NO: 105] |
| 5 | 4 | – | GQWTCSGDEYT[dW]HCNYE (disulfide 5-14 (inferred); not fully specified (C-terminus)) [SEQ ID NO: 173] |
| 13 | 6 | – | GQWTCSGDE[dY]TWHCNYE (disulfide 5-14 (inferred); not fully specified (C-terminus)) [SEQ ID NO: 171] |
| 8 | 10 | – | YHACYQAGCW[dI]W (disulfide 4-9 (inferred)) [SEQ ID NO: 161] |
| 11 | 4 | – | GQWTCSG[dD]EYTWHCNYE (disulfide 5-14 (inferred); not fully specified (C-terminus)) [SEQ ID NO: 169] |
